# Values quoted from earlier work as cited in patent US4446316A, “Dextran derivative of fibrinolysin” (Vsesojuzny Kardiologichesky Nauchny Tsentr, priority 1980, dated 1984).
# B1: derivative of fibrinolysin with aldehyde-containing sephadex: fibrinolysin reacted with a modified aldehyde-containing sephadex in a phosphate buffer at 4° C. (conjugate, UniProt P00747 20-580; P00747 581-810, looked up)
# Plasmin heavy chain A: EPLDDYVNTQGASLFSVTKKQLGAGSIEECAAKCEEDEEFTCRAFQYHSKEQQCVIMAENRKSSIIIRMRDVVLFEKKVYLSECKTGNGKNYRGTMSKTKNGITCQKWSSTSPHRPRFSPATHPSEGLEENYCRNPDNDPQGPWCYTTDPEKRYDYCDILECEEECMHCSGENYDGKISKTMSGLECQAWDSQSPHAHGYIPSKFPNKNLKKNYCRNPDRELRPWCFTTDPNKRWELCDIPRCTTPPPSSGPTYQCLKGTGENYRGNVAVTVSGHTCQHWSAQTPHTHNRTPENFPCKNLDENYCRNPDGKRAPWCHTTNSQVRWEYCKIPSCDSSPVSTEQLAPTAPPELTPVVQDCYHGDGQSYRGTSSTTTTGKKCQSWSSMTPHRHQKTPENYPNAGLTMNYCRNPDADKGPWCFTTDPSVRWEYCNLKKCSGTEASVVAPPPVVLLPDVETPSEEDCMFGNGKGYRGKRATTVTGTPCQDWAAQEPHRHSIFTPETNPRAGLEKNYCRNPDGDVGGPWCYTTNPRKLYDYCDVPQCAAPSFDCGKPQVEPKKCPGR
# Plasmin light chain B: VVGGCVAHPHSWPWQVSLRTRFGMHFCGGTLISPEWVLTAAHCLEKSPRPSSYKVILGAHQEVNLEPHVQEIEVSRLFLEPTRKDIALLKLSSPAVITDKVIPACLPSPNYVVADRTECFITGWGETQGTFGAGLLKEAQLPVIENKVCNRYEFLNGRVQSTELCAGHLAGGTDSCQGDSGGPLVCFEKDKYILQGVTSWGLGCARPNKPGVYVRVSRFVTWIEGVMRNN
# modifications: plasmin conjugated to aldehyde-containing Sephadex
# Conditions: prior-art product (Kardiologiya, 1977); cited from earlier work
molecule,measurement,value
B1,Solubility in water and aqueous solutions,not soluble
